{"source": "paper PMC7057995", "about": "“Structural basis of RNA polymerase I pre-initiation complex formation and promoter melting”", "molecular_target": "Core factor (CF) wild type: Rrn6/Rrn7/Rrn11 (Saccharomyces cerevisiae, UniProt P32786;P40992;Q04712 1-894;1-514;1-507)", "sequence (P32786 whole entry, chain 1 of 3)": "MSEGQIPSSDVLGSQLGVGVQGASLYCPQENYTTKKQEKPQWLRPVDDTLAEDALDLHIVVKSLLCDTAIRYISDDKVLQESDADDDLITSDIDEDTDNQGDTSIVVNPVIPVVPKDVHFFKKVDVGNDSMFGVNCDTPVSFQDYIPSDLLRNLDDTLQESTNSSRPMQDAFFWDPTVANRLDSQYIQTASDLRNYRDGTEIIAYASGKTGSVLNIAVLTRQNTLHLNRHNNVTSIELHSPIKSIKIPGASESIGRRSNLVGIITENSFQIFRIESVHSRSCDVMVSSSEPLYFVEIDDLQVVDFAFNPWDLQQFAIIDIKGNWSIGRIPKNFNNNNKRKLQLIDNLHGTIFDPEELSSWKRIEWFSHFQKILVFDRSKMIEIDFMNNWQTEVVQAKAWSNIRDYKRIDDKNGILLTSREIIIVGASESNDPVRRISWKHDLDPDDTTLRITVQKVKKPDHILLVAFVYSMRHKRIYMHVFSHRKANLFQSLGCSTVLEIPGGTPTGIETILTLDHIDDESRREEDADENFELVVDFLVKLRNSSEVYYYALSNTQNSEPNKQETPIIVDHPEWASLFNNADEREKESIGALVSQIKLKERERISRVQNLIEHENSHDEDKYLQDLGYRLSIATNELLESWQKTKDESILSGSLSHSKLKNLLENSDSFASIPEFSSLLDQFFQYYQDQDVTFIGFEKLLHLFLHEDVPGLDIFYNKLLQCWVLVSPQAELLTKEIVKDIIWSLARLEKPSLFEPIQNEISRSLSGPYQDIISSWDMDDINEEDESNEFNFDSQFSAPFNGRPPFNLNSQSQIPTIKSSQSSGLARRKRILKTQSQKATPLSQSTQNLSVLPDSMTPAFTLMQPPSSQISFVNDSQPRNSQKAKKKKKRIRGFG", "sequence (P40992 whole entry, chain 2 of 3)": "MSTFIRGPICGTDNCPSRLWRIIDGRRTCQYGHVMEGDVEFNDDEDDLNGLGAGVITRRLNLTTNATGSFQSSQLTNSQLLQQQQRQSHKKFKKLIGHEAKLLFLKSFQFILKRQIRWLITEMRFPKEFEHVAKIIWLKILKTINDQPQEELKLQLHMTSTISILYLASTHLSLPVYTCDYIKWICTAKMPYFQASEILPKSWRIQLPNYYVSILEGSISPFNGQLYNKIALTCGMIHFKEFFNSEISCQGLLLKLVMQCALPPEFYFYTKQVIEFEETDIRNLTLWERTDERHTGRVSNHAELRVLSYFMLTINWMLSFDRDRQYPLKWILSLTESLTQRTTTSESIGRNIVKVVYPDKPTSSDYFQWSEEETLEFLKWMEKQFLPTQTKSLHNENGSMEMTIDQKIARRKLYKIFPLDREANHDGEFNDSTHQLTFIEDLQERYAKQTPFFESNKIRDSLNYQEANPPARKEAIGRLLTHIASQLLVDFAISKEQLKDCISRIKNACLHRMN", "sequence (Q04712 whole entry, chain 3 of 3)": "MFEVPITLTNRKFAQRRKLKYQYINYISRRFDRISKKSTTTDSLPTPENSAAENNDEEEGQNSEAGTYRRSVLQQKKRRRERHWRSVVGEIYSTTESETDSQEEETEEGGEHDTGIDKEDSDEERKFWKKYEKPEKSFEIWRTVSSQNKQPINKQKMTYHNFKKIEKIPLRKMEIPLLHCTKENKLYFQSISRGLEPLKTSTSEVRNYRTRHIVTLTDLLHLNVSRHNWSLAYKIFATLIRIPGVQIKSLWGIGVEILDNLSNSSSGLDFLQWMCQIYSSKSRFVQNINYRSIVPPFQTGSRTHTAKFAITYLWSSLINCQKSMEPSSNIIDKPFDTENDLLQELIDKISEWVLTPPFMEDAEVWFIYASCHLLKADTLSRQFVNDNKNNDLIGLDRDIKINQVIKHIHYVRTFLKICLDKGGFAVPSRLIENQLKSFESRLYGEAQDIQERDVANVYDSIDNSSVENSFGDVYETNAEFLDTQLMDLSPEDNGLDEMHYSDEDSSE", "assay": "EMSA; 0.2 pmol DNA; 0.25, 0.5, 1 pmol CF; EMSA: 20 mM HEPES/KOH pH 7.8, 10% glycerol, 200 mM KCl, 1 mM MgCl2, 0.1 mg/ml BSA, 1 mM DTT, 30 min, temperature not stated; 6% native gel, 0.5x TBE", "details": "protein: recombinant; tags: His (Ni-NTA purified); copies: 1;1;1; label: NTS -3 Atto647N; TS -5 Cy3; blunt", "data": [{"binder": "rDNA promoter -83 to +26 (EMSA; ID 4691/4692) (dsDNA) DNA 1: AAAAGTAAGATTTTAGTTTGTAATGGGAGGGGGAATTTAGTCATGGAGTACAAGTGTGAGGAAAAGTAGTTGGGAGGTACTTCATACCAAAGGGGTTCAACACAAGGGT DNA 2: ACCCTTGTGTTGAACCCCTTTGGTATGAAGTACCTCCCAACTACTTTTCCTCACACTTGTACTCCATGACTAAATTCCCCCTCCCATTACAAACTAAAATCTTACTTTT", "values": [{"measurement": "binding result", "value": "binds"}]}]}
